2 molecules from paper PMC3125984 (Journal of molecular biology, 2011) can be followed below.

Read-outs that look alike come from different tables or passages of the source.

Series [1] deals with the molecule itself. In words: fluorescence correlation spectroscopy.
The target of series [2] is T1, Mss116 core (Ser73-Tyr597) (Saccharomyces cerevisiae, UniProt P15424 73-597).
T1 sequence: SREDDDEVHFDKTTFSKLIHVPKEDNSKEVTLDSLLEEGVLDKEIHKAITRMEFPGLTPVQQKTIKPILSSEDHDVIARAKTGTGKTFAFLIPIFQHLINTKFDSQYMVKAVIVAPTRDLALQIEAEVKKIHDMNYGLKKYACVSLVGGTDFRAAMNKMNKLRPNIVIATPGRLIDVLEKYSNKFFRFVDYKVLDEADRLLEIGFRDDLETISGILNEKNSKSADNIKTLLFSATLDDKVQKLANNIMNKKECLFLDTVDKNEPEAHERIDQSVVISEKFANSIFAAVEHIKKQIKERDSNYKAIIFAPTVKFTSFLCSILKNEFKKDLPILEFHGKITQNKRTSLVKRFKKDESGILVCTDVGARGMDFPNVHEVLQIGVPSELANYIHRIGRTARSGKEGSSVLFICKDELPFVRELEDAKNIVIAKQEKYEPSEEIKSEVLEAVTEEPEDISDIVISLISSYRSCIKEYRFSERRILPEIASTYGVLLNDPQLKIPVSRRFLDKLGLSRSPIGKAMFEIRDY
In words: FCS.

Series [3] concerns the target T1, Mss116 core (Ser73-Tyr597). As to the kind of experiment: FCS. The source holds these as a separate data set.

B1: Mss116 (truncated construct, Ser73 - Tyr597) (domain or fragment, Saccharomyces cerevisiae, UniProt P15424 73-597, looked up)
chain: SREDDDEVHFDKTTFSKLIHVPKEDNSKEVTLDSLLEEGVLDKEIHKAITRMEFPGLTPVQQKTIKPILSSEDHDVIARAKTGTGKTFAFLIPIFQHLINTKFDSQYMVKAVIVAPTRDLALQIEAEVKKIHDMNYGLKKYACVSLVGGTDFRAAMNKMNKLRPNIVIATPGRLIDVLEKYSNKFFRFVDYKVLDEADRLLEIGFRDDLETISGILNEKNSKSADNIKTLLFSATLDDKVQKLANNIMNKKECLFLDTVDKNEPEAHERIDQSVVISEKFANSIFAAVEHIKKQIKERDSNYKAIIFAPTVKFTSFLCSILKNEFKKDLPILEFHGKITQNKRTSLVKRFKKDESGILVCTDVGARGMDFPNVHEVLQIGVPSELANYIHRIGRTARSGKEGSSVLFICKDELPFVRELEDAKNIVIAKQEKYEPSEEIKSEVLEAVTEEPEDISDIVISLISSYRSCIKEYRFSERRILPEIASTYGVLLNDPQLKIPVSRRFLDKLGLSRSPIGKAMFEIRDY
B1: in series [1], the binding result is reported as “binds”.

Turning to GCCUCGCUGCCCUUCGGGGCAGCGAGGC (structured_RNA) [28-mer hairpin RNA], the Kd in series [2] is 122 ± 22 nM; in series [3], 117 ± 21 nM.

Usually Kd stands for the free concentration of one partner at which half of the binding sites on the other are occupied at equilibrium, for simple one-to-one binding. Higher therefore signals weaker binding.
